Each block holds one molecule with its values, some of them ahead of it.
Tests used:
[1] = target: human ZNRF3(ECD) on Freestyle 293F cells (human); experiment: FACS on a mix of DiD-labelled ZNRF3 over-expressing and unlabelled parental 293F Freestyle cells, secondary reagents (anti-M13 and Strep-PE) only; Q3 0,120% [continued]
[2] = target: T1, full length human LGR5-FLAG-HA on Freestyle 293F or CHO-K1 cells (human, UniProt O75473 22-907); experiment: competition FACS on CHO-K1 cells over-expressing human LGR5; competitor PG7711p02 (OMP88R20 copy) fixed at 50 ng/ml, detected with anti-human IgG PE; MFI normalised to no R-spondin1
T1 construct: also called hLGR5; hLGR5(FL)
T1 sequence: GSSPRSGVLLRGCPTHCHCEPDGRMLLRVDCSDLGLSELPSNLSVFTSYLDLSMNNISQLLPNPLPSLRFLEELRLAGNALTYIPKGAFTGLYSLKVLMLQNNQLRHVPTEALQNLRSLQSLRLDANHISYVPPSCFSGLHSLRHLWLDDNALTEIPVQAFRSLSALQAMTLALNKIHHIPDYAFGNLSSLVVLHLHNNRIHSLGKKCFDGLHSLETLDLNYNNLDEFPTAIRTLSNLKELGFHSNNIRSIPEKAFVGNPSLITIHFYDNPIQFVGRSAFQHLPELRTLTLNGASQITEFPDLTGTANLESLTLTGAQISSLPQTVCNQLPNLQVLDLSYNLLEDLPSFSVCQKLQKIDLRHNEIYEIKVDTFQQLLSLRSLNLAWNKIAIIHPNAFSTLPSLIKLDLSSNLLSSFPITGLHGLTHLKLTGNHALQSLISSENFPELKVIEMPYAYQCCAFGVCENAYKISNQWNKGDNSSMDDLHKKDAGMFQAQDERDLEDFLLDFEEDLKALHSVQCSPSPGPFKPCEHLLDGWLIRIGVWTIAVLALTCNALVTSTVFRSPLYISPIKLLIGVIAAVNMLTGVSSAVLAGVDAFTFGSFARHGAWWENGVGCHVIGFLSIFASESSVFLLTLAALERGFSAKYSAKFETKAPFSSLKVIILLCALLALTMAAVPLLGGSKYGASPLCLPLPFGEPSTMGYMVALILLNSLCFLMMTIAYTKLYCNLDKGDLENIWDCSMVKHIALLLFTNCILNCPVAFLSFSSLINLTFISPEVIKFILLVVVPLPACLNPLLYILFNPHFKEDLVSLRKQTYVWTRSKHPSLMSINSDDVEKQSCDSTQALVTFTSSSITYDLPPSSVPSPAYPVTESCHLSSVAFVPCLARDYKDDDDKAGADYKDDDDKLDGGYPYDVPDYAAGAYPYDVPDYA

[3] = target: T2, recombinant human LGR5-Fc (human, UniProt O75473 22-561); experiment: R-Spondin3 blocking ELISA: 0,031 µg/ml rhLGR5-Fc on 2 µg/ml coated rhR-Spondin3, competitor 15 µg/ml soluble R-Spondin3, detection anti-Fc, OD450 normalised to maximum binding
T2 construct: extracellular domain; also called rhLGR5-Fc (RND systems Cat. Nr. 8078-GP); not shown: Fc part of the bought fusion protein
T2 sequence (looked up): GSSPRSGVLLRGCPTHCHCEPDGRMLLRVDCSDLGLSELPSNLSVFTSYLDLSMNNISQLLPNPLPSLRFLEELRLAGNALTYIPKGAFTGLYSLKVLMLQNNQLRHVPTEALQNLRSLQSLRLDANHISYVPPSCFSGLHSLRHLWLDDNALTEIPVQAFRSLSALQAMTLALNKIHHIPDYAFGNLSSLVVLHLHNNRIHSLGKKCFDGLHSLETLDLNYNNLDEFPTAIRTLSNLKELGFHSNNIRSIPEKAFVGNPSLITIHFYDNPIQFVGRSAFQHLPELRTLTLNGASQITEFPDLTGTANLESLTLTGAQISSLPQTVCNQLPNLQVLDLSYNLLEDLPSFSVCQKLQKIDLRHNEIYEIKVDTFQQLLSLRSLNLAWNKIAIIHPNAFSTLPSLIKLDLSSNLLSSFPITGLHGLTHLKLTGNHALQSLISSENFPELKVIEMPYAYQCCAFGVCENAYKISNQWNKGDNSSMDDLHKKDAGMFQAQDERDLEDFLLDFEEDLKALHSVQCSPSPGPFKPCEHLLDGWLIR

human ZNRF3(ECD) on Freestyle 293F cells (human), sequence (chain, as listed by the source): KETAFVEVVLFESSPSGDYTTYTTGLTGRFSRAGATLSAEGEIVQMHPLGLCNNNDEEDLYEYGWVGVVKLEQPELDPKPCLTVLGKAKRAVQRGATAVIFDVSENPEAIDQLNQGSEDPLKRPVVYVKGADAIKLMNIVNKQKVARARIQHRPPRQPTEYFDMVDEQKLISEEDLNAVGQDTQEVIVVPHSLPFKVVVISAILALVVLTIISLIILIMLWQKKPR

% of events in Q2 (DiD-positive and PE-positive) [1]: 0.18%
Molecule: -Control

IC50 (read off the curve) [2]: ~10 nM
B1: R-spondin1 (ligand, UniProt Q2MKA7 21-263, looked up)
chain: SRGIKGKRQRRISAEGSQACAKGCELCSEVNGCLKCSPKLFILLERNDIRQVGVCLPSCPPGYFDARNPDMNKCIKCKIEHCEACFSHNFCTKCKEGLYLHKGRCYPACPEGSSAANGTMECSSPAQCEMSEWSPWGPCSKKQQLCGFRRGSEERTRRVLHAPVGDHAACSDTKETRRCTVRRVPCPEGQKRRKGGQGRRENANRNLARKESKEAGAGSRRRKGQQQQQQQGTVGPLTSAGPA
notes: also called RSPO1; R-spondin1 (R&D Systems, cat. nr. 4645-RF/CF)

binding result [3]: binds
B2: recombinant human R-Spondin3 (ligand, UniProt Q9BXY4 22-272, looked up)
chain: QNASRGRRQRRMHPNVSQGCQGGCATCSDYNGCLSCKPRLFFALERIGMKQIGVCLSSCPSGYYGTRYPDINKCTKCKADCDTCFNKNFCTKCKSGFYLHLGKCLDNCPEGLEANNHTMECVSIVHCEVSEWNPWSPCTKKGKTCGFKRGTETRVREIIQHPSAKGNLCPPTNETRKCTVQRKKCQKGERGKKGRERKRKKPNKGESKEAIPDSKSLESSKEIPEQRENKQQQKKRKVQDKQKSVSVSTVH
notes: also called rhR-Spondin3; R-Spondin3 (RND systems)

Source: patent US20240343824A1 (MERUS N V, published 2024)
